Experimental data reported in US20250352667A1.
Residue numbers refer to the chain shown, from its start. Numbers in names are those of the source. Blank lines part the entries; values can stand above or below the binder they belong to.

Key:
[1] = target: KEAP1 (wild-type full-length), His-tagged (human) (UniProt Q14145); experiment: AlphaScreen; 4.8 nM FLAG-NRF2, 150 nM His-KEAP1; Rep 2; control for I86V
[2] = target: KEAP1 (wild-type full-length), His-tagged (human) (UniProt Q14145); experiment: AlphaScreen, all variants on one plate; optimal condition (19.2 nM NRF2), KEAP1 150 nM; the reference itself
[3] = target: KEAP1 (wild-type full-length), His-tagged (human) (UniProt Q14145); experiment: AlphaScreen; FLAG-NRF2 wt isoform 1 2.4 nM, His-KEAP1 150 nM; Rep 1; positive control for Q75R
[4] = target: KEAP1 (wild-type full-length), His-tagged (human) (UniProt Q14145); experiment: AlphaScreen; 614.4 nM FLAG-NRF2, 150 nM His-KEAP1; Rep 2; control for I86V
[5] = target: KEAP1 (wild-type full-length), His-tagged (human) (UniProt Q14145); experiment: AlphaScreen; FLAG-NRF2 wt isoform 1 153.6 nM, His-KEAP1 150 nM; Rep 2; positive control for Q75R
[6] = target: KEAP1 (wild-type full-length), His-tagged (human) (UniProt Q14145); experiment: AlphaScreen; 19.2 nM FLAG-NRF2, 150 nM His-KEAP1; Repeat 1 (same value as in Table 26)
[7] = target: KEAP1 (wild-type full-length), His-tagged (human) (UniProt Q14145); experiment: AlphaScreen; 19.2 nM FLAG-NRF2, 150 nM His-KEAP1; Rep 1; control for I86V
[8] = target: KEAP1 (wild-type full-length), His-tagged (human) (UniProt Q14145); experiment: AlphaScreen; 1228.8 nM FLAG-NRF2, 150 nM His-KEAP1; Rep 2; control for I28V
[9] = target: KEAP1 (wild-type full-length), His-tagged (human) (UniProt Q14145); experiment: AlphaScreen; FLAG-NRF2 wt isoform 1 9.6 nM, His-KEAP1 150 nM; Rep 2; positive control for I86V
[10] = target: KEAP1 (wild-type full-length), His-tagged (human) (UniProt Q14145); experiment: AlphaScreen, all variants on one plate; average of three conditions ± standard deviation, KEAP1 150 nM; relative to NRF2 (WT) isoform 1
[11] = target: KEAP1 (wild-type full-length), His-tagged (human) (UniProt Q14145); experiment: AlphaScreen, all variants on one plate; upper condition (38.4 nM NRF2), KEAP1 150 nM; relative to NRF2 (WT) isoform 1
[12] = target: KEAP1 (wild-type full-length), His-tagged (human) (UniProt Q14145); experiment: AlphaScreen; NRF2 I86V 19.2 nM, KEAP1 150 nM; relative to wild-type NRF2 isoform 1 (100 %)
[13] = target: KEAP1 (wild-type full-length), His-tagged (human) (UniProt Q14145); experiment: AlphaScreen; FLAG-NRF2 I86V 153.6 nM, His-KEAP1 150 nM; Rep 3
[14] = target: KEAP1 (wild-type full-length), His-tagged (human) (UniProt Q14145); experiment: AlphaScreen, all variants on one plate; lower condition (9.6 nM NRF2), KEAP1 150 nM; relative to NRF2 (WT) isoform 1
[15] = target: KEAP1 (wild-type full-length), His-tagged (human) (UniProt Q14145); experiment: AlphaScreen, all variants on one plate; optimal condition (19.2 nM NRF2), KEAP1 150 nM; relative to NRF2 (WT) isoform 1
[16] = target: KEAP1 (wild-type full-length), His-tagged (human) (UniProt Q14145); experiment: AlphaScreen; average ± standard deviation over three NRF2 concentrations, KEAP1 150 nM; relative to wild-type NRF2 isoform 1
[17] = target: KEAP1 (wild-type full-length), His-tagged (human) (UniProt Q14145); experiment: AlphaScreen; NRF2 Q75R 614.4 nM, KEAP1 150 nM; signal against NRF2-only control
[18] = target: KEAP1 (wild-type full-length), His-tagged (human) (UniProt Q14145); experiment: AlphaScreen; FLAG-NRF2 Q75R 153.6 nM, His-KEAP1 150 nM; Rep 2
[19] = target: KEAP1 (wild-type full-length), His-tagged (human) (UniProt Q14145); experiment: AlphaScreen; FLAG-NRF2 Q75R 19.2 nM, His-KEAP1 150 nM; Repeat 1
[20] = target: KEAP1 (wild-type full-length), His-tagged (human) (UniProt Q14145); experiment: AlphaScreen; mean over 9.6, 19.2 and 38.4 nM NRF2 Q75R, KEAP1 150 nM; relative to wild-type NRF2 isoform 1
[21] = target: KEAP1 (wild-type full-length), His-tagged (human) (UniProt Q14145); experiment: AlphaScreen; FLAG-NRF2 Q75R 1228.8 nM, His-KEAP1 150 nM; Rep 2
[22] = target: KEAP1 (wild-type full-length), His-tagged (human) (UniProt Q14145); experiment: AlphaScreen; FLAG-NRF2 Q75R 19.2 nM, His-KEAP1 150 nM; Repeat 2
[23] = target: KEAP1 (wild-type full-length), His-tagged (human) (UniProt Q14145); experiment: AlphaScreen; FLAG-NRF2 Q75R 2.4 nM, His-KEAP1 150 nM; Rep 1
[24] = target: KEAP1 (wild-type full-length), His-tagged (human) (UniProt Q14145); experiment: AlphaScreen; FLAG-NRF2 Q75R 2.4 nM, His-KEAP1 150 nM; Rep 2
[25] = target: KEAP1 (wild-type full-length), His-tagged (human) (UniProt Q14145); experiment: AlphaScreen; 9.6 nM FLAG-NRF2, 150 nM His-KEAP1; Repeat 2 (same value as in Table 27)
[26] = target: KEAP1 (wild-type full-length), His-tagged (human) (UniProt Q14145); experiment: AlphaScreen; 19.2 nM FLAG-NRF2, 150 nM His-KEAP1; Repeat 2 (same value as in Table 27)

Sequence of KEAP1 (wild-type full-length), His-tagged (human) (Q14145 2-624 limits assumed): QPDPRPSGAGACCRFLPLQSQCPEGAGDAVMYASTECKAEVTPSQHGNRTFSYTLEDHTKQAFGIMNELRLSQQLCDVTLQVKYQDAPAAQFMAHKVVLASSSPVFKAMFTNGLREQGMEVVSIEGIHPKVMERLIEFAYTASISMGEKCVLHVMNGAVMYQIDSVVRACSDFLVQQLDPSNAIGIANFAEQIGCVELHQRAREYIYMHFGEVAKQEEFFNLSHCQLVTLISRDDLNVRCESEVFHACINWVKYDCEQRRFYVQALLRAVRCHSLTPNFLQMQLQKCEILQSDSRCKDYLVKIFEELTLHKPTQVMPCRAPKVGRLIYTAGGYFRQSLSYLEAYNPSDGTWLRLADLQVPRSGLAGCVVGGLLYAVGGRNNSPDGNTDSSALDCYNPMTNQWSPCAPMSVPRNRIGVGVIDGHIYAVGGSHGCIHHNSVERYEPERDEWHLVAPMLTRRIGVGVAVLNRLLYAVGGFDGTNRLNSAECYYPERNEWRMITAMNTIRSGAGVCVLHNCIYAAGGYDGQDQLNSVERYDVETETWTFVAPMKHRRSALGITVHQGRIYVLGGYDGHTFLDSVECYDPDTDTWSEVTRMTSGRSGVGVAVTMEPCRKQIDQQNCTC

B2: NRF2 isoform 1 (I86V full-length), FLAG-tagged (protein)
chain: MMDLELPPPGLPSQQDMDLIDILWRQDIDLGVSREVFDFSQRRKEYELEKQKKLEKERQEQLQKEQEKAFFAQLQLDEETGEFLPVQPAQHIQSETSGSANYSQVAHIPKSDALYFDDCMQLLAQTFPFVDDNEVSSATFQSLVPDIPGHIESPVFIATNQAQSPETSVAQVAPVDLDGMQQDIEQVWEELLSIPELQCLNIENDKLVETTMVPSPEAKLTEVDNYHFYSSIPSMEKEVGNCSPHFLNAFEDSFSSILSTEDPNQLTVNSLNSDATVNTDFGDEFYSAFIAEPSISNSMPSPATLSHSLSELLNGPIDVSDLSLCKAFNQNHPESTAEFNDSDSGISLNTSPSVASPEHSVESSSYGDTLLGLSDSEVEELDSAPGSVKQNGPKTPVHSSGDMVQPLSPSQGQSTHVHDAQCENTPEKELPVSPGHRKTPFTKDKHSSRLEAHLTRDELRAKALHIPFPVEKIINLPVVDFNEMMSKEQFNEAQLALIRDIRRRGKNKVAAQNCRKRKLENIVELEQDLDHLKDEKEKLLKEKGENDKSLHLLKKQLSTLYLEVFSMLRDEDGKPYSPSEYSLQQTRDGNVFLVPKSKKPDVKKN
% Disruption in Binding (Reported Values) [10]: 8.4% | % Disruption in Binding [11]: 10.5% | Binding Percentage [12]: 97.8% | A-counts (NRF2 plus KEAP1) [13]: 2500 A-counts | % Disruption in Binding [14]: 5.7% | % Disruption in Binding [15]: 9.2% | Reported Value (reduction in binding) [16]: 3.2%

B4: NRF2 isoform 1 (I28V full-length), FLAG-tagged (protein)
chain: B2 chain with I28V, V86I
A-counts [25]: 1560 A-counts | % Disruption in Binding (Reported Values) [10]: 20.3% | % Disruption in Binding [11]: 21.5% | % Disruption in Binding [14]: 16.7% | % Disruption in Binding [15]: 22.6% | A-counts [26]: 1700 A-counts

Continued, values first:

A-counts [1]: 1620 A-counts | % Disruption in Binding [2]: 0% | A-counts (NRF2 plus KEAP1) [3]: 419 A-counts | A-counts [4]: 2520 A-counts | A-counts (NRF2 plus KEAP1) [5]: 1500 A-counts | A-counts [6]: 1980 A-counts | A-counts [7]: 3300 A-counts | A-counts [8]: 1520 A-counts | A-counts (NRF2 plus KEAP1) [9]: 2720 A-counts
B1: NRF2 isoform 1 (wild-type full-length), FLAG-tagged (protein)
chain: B2 chain with V86I

S/N [17]: 0.8 | A-counts (NRF2 plus KEAP1) [18]: 991 A-counts | % Disruption in Binding (Reported Values) [10]: 27.5% | % Disruption in Binding [11]: 25.1% | A-counts (NRF2 plus KEAP1) [19]: 1300 A-counts | % Disruption in Binding [14]: 29.3% | Average Binding [20]: 69.8% | Avg. Reduction in Binding [20]: 30.2% | A-counts (NRF2 plus KEAP1) [21]: 653 A-counts | % Disruption in Binding [15]: 28.3% | Reported Value (reduction in binding) [16]: 30.2% | A-counts (NRF2 plus KEAP1) [22]: 1280 A-counts | A-counts (NRF2 plus KEAP1) [23]: 588 A-counts | A-counts (NRF2 plus KEAP1) [24]: 566 A-counts
B3: NRF2 isoform 1 (Q75R full-length), FLAG-tagged (protein)
chain: B2 chain with Q75R, V86I
